In US20120058906A1 (published 2012):
Each block holds one binder with its values, some of them ahead of it.

Columns and labels:
[1] = target: T1, rHuman P-Cadherin/Fc Chimera, CF (R&D Systems Cat#861-PC) (human, UniProt P22223 108-654); experiment: MSD ECL multi-spot plate, antigen immobilized; Fab 1.6 nM; blank spot 565
T1 construct: Purchased Fc chimera; not shown: Fc portion of the purchased chimera

[2] = target: T2, Recombinant Human DLL4 (R&D Systems Cat#1506-D4/CF) (human, UniProt Q9NR61 27-524); experiment: as above
T2 construct: Purchased recombinant protein; also called delta-like protein 4

[3] = target: T3, rHuman EGF R/Fc Chimera, CF (R&D Systems Cat#344-ER) (human, UniProt P00533 25-645); experiment: as above
T3 construct: Purchased Fc chimera; not shown: Fc portion of the purchased chimera

[4] = target: T4, rHuman IGF-1 sR (IGF-1 sR), CF (R&D Systems Cat#391-GR) (human, UniProt P08069 31-932); experiment: as above
T4 construct: Purchased soluble receptor; also called insulin-like growth factor-1 soluble receptor; IGF-R1

[5] = target: T5, rHuman Notch-1/Fc Chimera, CF (R&D Systems Cat#3647-TK) (human, UniProt P46531 19-526); experiment: as above
T5 construct: Purchased Fc chimera; not shown: Fc portion of the purchased chimera

[6] = target: T6, rHuman CD44/Fc Chimera, CF (R&D Systems Cat#3660-CD) (human, UniProt P16070 21-220); experiment: as above
T6 construct: Purchased Fc chimera; not shown: Fc portion of the purchased chimera

[7] = target: T7, rHuman ErbB2/Fc Chimera, CF (R&D Systems Cat#1129-ER) (human, UniProt P04626 23-652); experiment: as above
T7 construct: Purchased Fc chimera; also called HER2/neu; not shown: Fc portion of the purchased chimera

[8] = target: T8, rHuman HGF R/c-MET/Fc Chimera, CF (R&D Systems Cat#358-MT/CF) (human, UniProt P08581 25-932); experiment: as above
T8 construct: Purchased Fc chimera; also called HGF R/Fc; not shown: Fc portion of the purchased chimera

[9] = target: T9, rHuman Erythropoietin R/Fc Chimera, CF (R&D Systems Cat#963-ER) (human, UniProt P19235 25-250); experiment: as above
T9 construct: Purchased Fc chimera; also called EPO R/Fc; Epo R; not shown: Fc portion of the purchased chimera
T9 sequence: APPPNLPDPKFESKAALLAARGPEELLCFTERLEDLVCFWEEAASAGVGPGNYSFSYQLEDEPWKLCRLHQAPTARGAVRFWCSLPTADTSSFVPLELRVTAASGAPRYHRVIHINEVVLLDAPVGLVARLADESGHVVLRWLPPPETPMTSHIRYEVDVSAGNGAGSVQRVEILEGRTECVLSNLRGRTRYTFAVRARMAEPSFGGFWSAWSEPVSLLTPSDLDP

[10] = target: T1, rHuman P-Cadherin/Fc Chimera, CF (R&D …); experiment: MSD ECL multi-spot plate, antigen immobilized; Fab 40 nM; blank spot 502
[11] = target: T2, Recombinant Human DLL4 (R&D Systems …); experiment: as above
[12] = target: T3, rHuman EGF R/Fc Chimera, CF (R&D …); experiment: as above
[13] = target: T4, rHuman IGF-1 sR (IGF-1 sR), CF (R&D …); experiment: as above
[14] = target: T5, rHuman Notch-1/Fc Chimera, CF (R&D …); experiment: as above
[15] = target: T6, rHuman CD44/Fc Chimera, CF (R&D Systems …); experiment: as above
[16] = target: T7, rHuman ErbB2/Fc Chimera, CF (R&D …); experiment: as above
[17] = target: T8, rHuman HGF R/c-MET/Fc Chimera, CF (R&D …); experiment: as above
[18] = target: T9, rHuman Erythropoietin R/Fc Chimera, CF …; experiment: as above
[19] = target: T10, rHuman IGF-1 sR (insulin-like growth factor-1 soluble receptor), CF (R&D Systems Cat#391-GR) (human, UniProt P08069 31-932); experiment: ECL (MSD multi-spot), antigen on plate, Fab 0.4 nM
T10 construct: Bought soluble receptor; also called IGF-R1

[20] = target: T11, rHuman HGF R/c-MET/Fc Chimera, CF (R&D Systems Cat#358-MT/CF) (human, UniProt P08581 25-932); experiment: ECL (MSD multi-spot), antigen on plate, Fab 0.4 nM
T11 construct: Bought Fc chimera; also called HGF R/Fc; not shown: Fc of the bought chimera
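Further: blank spot per well as comparator with Hit at signal to blank ratio of 4 or more.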

ECL signal [1]: 811 ECL signal | ECL signal [2]: 2420 ECL signal | ECL signal [3]: 1180 ECL signal | ECL signal [4]: 1440 ECL signal | ECL signal [5]: 816 ECL signal | ECL signal [6]: 938 ECL signal | ECL signal [7]: 1320 ECL signal | ECL signal [8]: 1440 ECL signal | ECL signal [9]: 899 ECL signal
B1: Fab VH5-51_IGHD5-18*01>3_IGHJ4*01_G100K & V3-4_IGLJ1*01 (Fab, V domains shown)
VH: EVQLVQSGAEVKKPGESLKISCKGSGYSFTSYWIGWVRQMPGKGLEWMGIIYPGDSDTRYSPSFQGQVTISADKSISTAYLQWSSLKASDTAMYYCARRKYSYGYDYFDYWGQGTLVTVSS
VL: QTVVTQEPSFSVSPGGTVTLTCGLSSGSVSTSYYPSWYQQTPGQAPRTLIYSTNTRSSGVPDRFSGSILGNKAALTITGAQADDESDYYCVLYMGSGISYVFGTGTKVTVL
notes: It was expressed as a Fab: CH1 with tags from Plasmid A and lambda CL from Plasmid E; also called Fab No. 22

ECL signal [10]: 1020 ECL signal | ECL signal [11]: 19500 ECL signal | ECL signal [12]: 1110 ECL signal | ECL signal [13]: 1240 ECL signal | ECL signal [14]: 1010 ECL signal | ECL signal [15]: 824 ECL signal | ECL signal [16]: 1420 ECL signal | ECL signal [17]: 1230 ECL signal | ECL signal [18]: 994 ECL signal
B2: Fab VH5-51_IGHD5-18*01>3_IGHJ4*01_G100R & V3-4_IGLJ1*01 (Fab, V domains shown)
VH: EVQLVQSGAEVKKPGESLKISCKGSGYSFTSYWIGWVRQMPGKGLEWMGIIYPGDSDTRYSPSFQGQVTISADKSISTAYLQWSSLKASDTAMYYCARRRYSYGYDYFDYWGQGTLVTVSS
VL: QTVVTQEPSFSVSPGGTVTLTCGLSSGSVSTSYYPSWYQQTPGQAPRTLIYSTNTRSSGVPDRFSGSILGNKAALTITGAQADDESDYYCVLYMGSGISYVFGTGTKVTVL
notes: It was expressed as a Fab: CH1 with tags from Plasmid A and lambda CL from Plasmid E; also called Fab No. 23

ECL signal [19]: 172 ECL signal | ECL signal [20]: 199 ECL signal
B3: Fab VH1-46_IGHD6-6*01_IGHJ1*01_S102A_S103P_S104F & L6_IGKJ1*01_S28P (Fab, V domains shown)
VH: QVQLVQSGAEVKKPGASVKVSCKASGYTFTSYYMHWVRQAPGQGLEWMGIINPSGGSTSYAQKFQGRVTMTRDTSTSTVYMELSSLRSEDTAVYYCAREEYAPFSAEYFQHWGQGTLVTVSS
VL: EIVLTQSPATLSLSPGERATLSCRASQPVSSYLAWYQQKPGQAPRLLIYDASNRATGIPARFSGSGSGTDFTLTISSLEPEDFAVYYCQQRSNWPPWTFGQGTKVEIKR
notes: Fab
